Source: article PMC7126681

Key:
[1] = target: His-tagged griffithsin (SeMet-labeled, E. coli-expressed) (Griffithsia sp.) (UniProt P84801); experiment: crystal structure
[2] = target: plant-expressed griffithsin (Griffithsia sp.) (UniProt P84801); experiment: crystal structure

Substance	stoichiometry N [1]	stoichiometry N [2]
His-tagged griffithsin (SeMet-labeled, E. coli-expressed) (from UniProt P84801 1-121) (natural protein)	2	–
plant-expressed griffithsin (from UniProt P84801 1-121) (natural protein)	–	2
